Key:
Assay in all cases: cell-based or functional assay
[1] = molecular target: Full length MmRXR (mouse Mus musculus RXRalpha) (Mus musculus) (UniProt P28700)
[2] = molecular target: VP16CfUSPDEF (VP16 activation domain fused to the D, E and F domains of Choristoneura fumiferana USP) (Choristoneura fumiferana)
[3] = molecular target: VP16MmRXRDEF (VP16 activation domain fused to the DEF domains of mouse RXR) (Mus musculus)
[4] = molecular target: VP16CfEcRCDEF (VP16 activation domain fused to CfEcRCDEF) (Choristoneura fumiferana)
[5] = molecular target: VP16DmEcRCDEF (VP16 activation domain fused to DmEcRCDEF) (Drosophila melanogaster)

Full length MmRXR (mouse Mus musculus RXRalpha) (Mus musculus), sequence (P28700 whole entry, the tested form may be a part): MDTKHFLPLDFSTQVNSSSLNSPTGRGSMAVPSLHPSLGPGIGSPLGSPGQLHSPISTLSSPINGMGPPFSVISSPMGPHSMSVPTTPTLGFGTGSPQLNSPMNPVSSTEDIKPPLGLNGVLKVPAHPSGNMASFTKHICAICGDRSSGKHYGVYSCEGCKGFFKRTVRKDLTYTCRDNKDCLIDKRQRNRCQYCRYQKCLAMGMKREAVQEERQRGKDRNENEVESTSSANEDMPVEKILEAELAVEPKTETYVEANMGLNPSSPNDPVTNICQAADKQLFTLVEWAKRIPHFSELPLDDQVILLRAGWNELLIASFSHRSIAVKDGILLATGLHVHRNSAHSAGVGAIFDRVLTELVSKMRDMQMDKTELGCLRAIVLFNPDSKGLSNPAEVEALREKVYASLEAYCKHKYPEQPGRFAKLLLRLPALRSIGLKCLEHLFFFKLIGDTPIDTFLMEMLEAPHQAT

With “CfVgRXR EcR component: truncated CfEcR comprising a partial A/B domain and the complete CDEF domains, fused to VP16AD” the Mean Fold Activation Through N-(2-ethyl-3-methoxybenzoyl)-N'-(3,5-dimethylbenzoyl)-N'-t-butylhydrazine; pIND(SP1)LacZ reporter, 3T3 cells (switch 1.9) [1] was 19 fold, the Mean Fold Activation Through N-(2-ethyl-3-methoxybenzoyl)-N'-(3,5-dimethylbenzoyl)-N'-t-butylhydrazine; pIND(SP1)LacZ reporter, 293 cells (switch 1.9) [1] was 12 fold and the Mean Fold Activation with 50 µM N-(2-ethyl-3-methoxybenzoyl)-N'-(3,5-dimethylbenzoyl)-N'-t-butylhydrazine; pIND(SP1)LacZ reporter, CHO cells (switch 1.9) [1] was 27 fold.
“GAL4CfEcRDEF (GAL4 DNA binding domain fused to the D, E and F domains of Choristoneura fumiferana EcR)” was tested, and the Mean Fold Activation Through N-(2-ethyl-3-methoxybenzoyl)-N'-(3,5-dimethylbenzoyl)-N'-t-butylhydrazine; pGAL4RELuc reporter, 3T3 cells (switch 1.2) [2] was 2 fold, the Mean Fold Activation Through N-(2-ethyl-3-methoxybenzoyl)-N'-(3,5-dimethylbenzoyl)-N'-t-butylhydrazine; pGAL4RELuc reporter, 293 cells (switch 1.2) [2] was 2 fold and the Mean Fold Activation with 50 µM N-(2-ethyl-3-methoxybenzoyl)-N'-(3,5-dimethylbenzoyl)-N'-t-butylhydrazine; pGAL4RELuc reporter, CHO cells (switch 1.2) [2] was 2 fold. For the same substance, the Mean Fold Activation Through N-(2-ethyl-3-methoxybenzoyl)-N'-(3,5-dimethylbenzoyl)-N'-t-butylhydrazine; pGAL4RELuc reporter, 3T3 cells (switch 1.1) [3] was 1120 fold, the Mean Fold Activation Through N-(2-ethyl-3-methoxybenzoyl)-N'-(3,5-dimethylbenzoyl)-N'-t-butylhydrazine; pGAL4RELuc reporter, 293 cells (switch 1.1) [3] was 125 fold and the Mean Fold Activation with 50 µM N-(2-ethyl-3-methoxybenzoyl)-N'-(3,5-dimethylbenzoyl)-N'-t-butylhydrazine; pGAL4RELuc reporter, CHO cells (switch 1.1) [3] was 267 fold. It also gave a Mean Fold Induction at 1.0 µM Concentration of Muristerone A; reporter gene, 3T3 cells (switch 1.1) [3] of 1 fold, a Mean Fold Induction at 1.0 µM Concentration of N'-(3,4-(1,2-ethylenedioxy)-2-methylbenzoyl)-N'-(3,5-dimethylbenzoyl)-N'-tert-butylhydrazine; reporter gene, 3T3 cells (switch 1.1) [3] of 601 fold and a Mean Fold Induction at 1.0 µM Concentration of N-(2-ethyl-3-methoxybenzoyl)-N'-(3,5-dimethylbenzoyl)-N'-tert-butylhydrazine; reporter gene, 3T3 cells (switch 1.1) [3] of 116 fold. The Mean Fold Induction at 1.0 µM Concentration of Ponasterone A; reporter gene, 3T3 cells (switch 1.1) [3] was 1 fold.
With “GAL4MmRXRDEF (GAL4 DNA binding domain fused to MmRXRDEF)” the Mean Fold Activation Through N-(2-ethyl-3-methoxybenzoyl)-N'-(3,5-dimethylbenzoyl)-N'-t-butylhydrazine; pGAL4RELuc reporter, 3T3 cells (switch 1.3) [4] was 47 fold, the Mean Fold Activation Through N-(2-ethyl-3-methoxybenzoyl)-N'-(3,5-dimethylbenzoyl)-N'-t-butylhydrazine; pGAL4RELuc reporter, 293 cells (switch 1.3) [4] was 17 fold and the Mean Fold Activation with 50 µM N-(2-ethyl-3-methoxybenzoyl)-N'-(3,5-dimethylbenzoyl)-N'-t-butylhydrazine; pGAL4RELuc reporter, CHO cells (switch 1.3) [4] was 85 fold. For the same substance, the Mean Fold Induction at 1.0 µM Concentration of Muristerone A; reporter gene, 3T3 cells (switch 1.3) [4] was 1 fold, the Mean Fold Induction at 1.0 µM Concentration of N'-(3,4-(1,2-ethylenedioxy)-2-methylbenzoyl)-N'-(3,5-dimethylbenzoyl)-N'-tert-butylhydrazine; reporter gene, 3T3 cells (switch 1.3) [4] was 54 fold and the Mean Fold Induction at 1.0 µM Concentration of N-(2-ethyl-3-methoxybenzoyl)-N'-(3,5-dimethylbenzoyl)-N'-tert-butylhydrazine; reporter gene, 3T3 cells (switch 1.3) [4] was 71 fold. For the same substance, the Mean Fold Induction at 1.0 µM Concentration of Ponasterone A; reporter gene, 3T3 cells (switch 1.3) [4] was 1 fold, the Mean Fold Activation Through N-(2-ethyl-3-methoxybenzoyl)-N'-(3,5-dimethylbenzoyl)-N'-t-butylhydrazine; pGAL4RELuc reporter, 3T3 cells (switch 1.4) [5] was 269 fold and the Mean Fold Activation Through N-(2-ethyl-3-methoxybenzoyl)-N'-(3,5-dimethylbenzoyl)-N'-t-butylhydrazine; pGAL4RELuc reporter, 293 cells (switch 1.4) [5] was 3 fold. For the same substance, the Mean Fold Activation with 50 µM N-(2-ethyl-3-methoxybenzoyl)-N'-(3,5-dimethylbenzoyl)-N'-t-butylhydrazine; pGAL4RELuc reporter, CHO cells (switch 1.4) [5] was 312 fold.
For “GAL4CfUSPDEF (GAL4 DNA binding domain fused to CfUSPDEF)”, the Mean Fold Activation Through N-(2-ethyl-3-methoxybenzoyl)-N'-(3,5-dimethylbenzoyl)-N'-t-butylhydrazine; pGAL4RELuc reporter, 3T3 cells (switch 1.5) [4] was 3 fold, the Mean Fold Activation Through N-(2-ethyl-3-methoxybenzoyl)-N'-(3,5-dimethylbenzoyl)-N'-t-butylhydrazine; pGAL4RELuc reporter, 293 cells (switch 1.5) [4] was 2 fold and the Mean Fold Activation with 50 µM N-(2-ethyl-3-methoxybenzoyl)-N'-(3,5-dimethylbenzoyl)-N'-t-butylhydrazine; pGAL4RELuc reporter, CHO cells (switch 1.5) [4] was 2 fold.
“Drosophila melanogaster EcR with a modified DNABD fused to VP16AD (EcR component of the DmVgRXR system, Invitrogen)” was tested, and the Mean Fold Activation Through N-(2-ethyl-3-methoxybenzoyl)-N'-(3,5-dimethylbenzoyl)-N'-t-butylhydrazine; pIND(SP1)LacZ reporter, 3T3 cells (switch 1.8) [1] was 21 fold, the Mean Fold Activation Through N-(2-ethyl-3-methoxybenzoyl)-N'-(3,5-dimethylbenzoyl)-N'-t-butylhydrazine; pIND(SP1)LacZ reporter, 293 cells (switch 1.8) [1] was 21 fold and the Mean Fold Activation with 50 µM N-(2-ethyl-3-methoxybenzoyl)-N'-(3,5-dimethylbenzoyl)-N'-t-butylhydrazine; pIND(SP1)LacZ reporter, CHO cells (switch 1.8) [1] was 14 fold.

From patent US20040033600A1
